In patent publication US20100226910:

Target: Amyloid beta1-42 standard (from β-Amyloid1-42 ELISA, Human kit, Sigma BE0200), P05067
Sequence (P05067 whole entry, looked up, tested part not stated): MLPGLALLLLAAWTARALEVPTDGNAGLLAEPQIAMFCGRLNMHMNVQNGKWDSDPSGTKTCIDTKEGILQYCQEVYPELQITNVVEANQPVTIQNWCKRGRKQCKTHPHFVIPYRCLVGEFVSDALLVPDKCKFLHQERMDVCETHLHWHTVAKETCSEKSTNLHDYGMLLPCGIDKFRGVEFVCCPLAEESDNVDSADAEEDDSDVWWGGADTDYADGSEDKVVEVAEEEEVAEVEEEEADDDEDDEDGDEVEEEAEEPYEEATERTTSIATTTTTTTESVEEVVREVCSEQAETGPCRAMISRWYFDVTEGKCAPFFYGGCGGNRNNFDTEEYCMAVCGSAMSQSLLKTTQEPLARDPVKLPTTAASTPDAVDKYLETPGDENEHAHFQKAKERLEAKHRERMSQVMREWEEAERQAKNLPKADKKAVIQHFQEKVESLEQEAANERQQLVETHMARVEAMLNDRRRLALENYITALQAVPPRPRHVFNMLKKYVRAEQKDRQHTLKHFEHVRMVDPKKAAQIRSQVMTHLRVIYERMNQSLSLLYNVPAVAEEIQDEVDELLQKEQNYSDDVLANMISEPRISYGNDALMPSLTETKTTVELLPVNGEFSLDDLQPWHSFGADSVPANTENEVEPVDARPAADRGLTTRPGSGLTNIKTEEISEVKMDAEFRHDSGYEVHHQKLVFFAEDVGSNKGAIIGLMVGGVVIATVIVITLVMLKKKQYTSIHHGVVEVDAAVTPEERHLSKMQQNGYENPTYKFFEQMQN

B1: Tissue kallikrein (SEQ ID NO:1) (protein)
chain: IIGGRECEKDSHPWQVAIYHYSSFQCGGVLVDPKWVLTAAHCKNDNYQVWLGRHNLFENEVTAQFFGVTADFPHPGFNLSLLKNHTKADGKDYSHDLMLLRLQSPAKITDAVKVLELPTQEPELGSTCQASGWGSIEPGPDDFEFPDEIQCVELTLLQNTFCADAHPDKVTESMLCAGYLPGGKDTCMGDSGGPLICNGMWQGITSWGHTPCGSANKPSIYTKLIFYLDWINDTITENP
% Cleavage (ELISA of remaining Aβ1-42), KLK1 1 pg/mL, 3 hrs: 0% | % Cleavage (ELISA of remaining Aβ1-42), KLK1 1 pg/mL, 18 hrs: 0% | % Cleavage (ELISA of remaining Aβ1-42), KLK1 10 pg/mL, 3 hrs: 0% | % Cleavage (ELISA of remaining Aβ1-42), KLK1 10 pg/mL, 18 hrs: 15% | % Cleavage (ELISA of remaining Aβ1-42), KLK1 100 pg/mL, 3 hrs: 0% | % Cleavage (ELISA of remaining Aβ1-42), KLK1 100 pg/mL, 18 hrs: 19.5% | % Cleavage (ELISA of remaining Aβ1-42), KLK1 1 ng/mL, 3 hrs: 19.6% | % Cleavage (ELISA of remaining Aβ1-42), KLK1 1 ng/mL, 18 hrs: 50% | % Cleavage (ELISA of remaining Aβ1-42), KLK1 10 ng/mL, 3 hrs: 36.6% | % Cleavage (ELISA of remaining Aβ1-42), KLK1 10 ng/mL, 18 hrs: 88.4% | % Cleavage (ELISA of remaining Aβ1-42), KLK1 100 ng/mL, 3 hrs: 71.7% | % Cleavage (ELISA of remaining Aβ1-42), KLK1 100 ng/mL, 18 hrs: 99.8% | % Cleavage (ELISA of remaining Aβ1-42), KLK1 1 µg/mL, 3 hrs: 92.1% | % Cleavage (ELISA of remaining Aβ1-42), KLK1 1 µg/mL, 18 hrs: 100%
